In patent US12162934B2, “Gremlin-1 antagonist for the prevention and treatment of cancer” (UCB BIOPHARMA SRL, priority 2018, dated 2024):

Experiments:
[1] = molecular target: T1, rhGremlin-1 (Homo sapiens, UniProt O60565); assay: SMAD phosphorylation assay: restoration of p-SMAD signalling, lung fibroblasts from idiopathic pulmonary fibrosis patients; format: cell-based
T1 sequence (O60565 25-184): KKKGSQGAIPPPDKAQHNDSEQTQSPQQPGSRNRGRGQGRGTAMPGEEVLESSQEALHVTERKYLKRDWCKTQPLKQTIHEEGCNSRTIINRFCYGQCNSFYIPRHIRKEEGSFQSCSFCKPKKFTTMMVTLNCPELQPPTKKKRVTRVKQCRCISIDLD
Experimental: Antibodies were screened using the Hek-Id1 reporter gene assay described in Example 3 and by measuring SMAD phosphorylation. SMAD1, 5 and 8 are phosphorylated upon BMP signalling. Inhibitors of Gremlin-1 therefore increase SMAD phosphorylation.
SMAD phosphorylation assays were conducted on A549 cells or on human lung fibroblasts. Phosphorylation levels were determined using MSD.
Results are shown as a percentage of SMAD phosphorylation by BMP alone (control BMP). Experiments were performed using lung fibroblasts from idiopathic pulmonary fibrosis patients. rhGremlin-1 and the anti-Gremlin-1 antibodies were preincubated for 45 minutes at room temperature. rhGremlin-1 and the anti-Gremlin-1 antibodies were then added with BMP to the cells for 30 minutes.

[2] = molecular target: T2, BMP-2-Gremlin-1 complexes (Homo sapiens, UniProt O60565); assay: SMAD phosphorylation assay: displacement of BMP-2 from Gremlin 1-BMP complexes; format: cell-based; details: for Displacement of BMP-2 from Gremlin 1-BMP complexes (SMAD phosphorylation): BMP 2 50 ng/ml
T2 sequence (O60565 25-184): T1 sequence (O60565 25-184)
Experimental: (§1) Experiments were again performed using lung fibroblasts from idiopathic pulmonary fibrosis patients. rhBMP-2 or rhBMP 4/7 were preincubated with rhGremlin-1 for 1 hour at room temperature. The BMP-2- or BMP4/7-Gremlin-1 complexes were incubated with different concentrations of the anti-Gremlin-1 antibodies overnight at 4° C. Antibody concentrations represent the final concentration on the plate.

[3] = molecular target: T3, BMP4/7-Gremlin-1 complexes (Homo sapiens, UniProt O60565); assay: SMAD phosphorylation assay: displacement of BMP4/7 from Gremlin 1-BMP complexes; format: cell-based; details: BMP4/7 50 ng/ml
T3 sequence (O60565 25-184): T1 sequence (O60565 25-184)
Experimental: as §1

[4] = test system: 5TGM1.Bmx1 MM PCs; assay: 5TGM1/KaLwRij mouse model of multiple myeloma, antibody prior to tumour cell inoculation; format: in vivo
Experimental: Targeting Grem1 prior to tumour cell inoculation in an immunocompetent murine model of systemic MM: C57BL/KaLwRij mice (6-8-week-old) were administered two doses of 30 mg/kg Grem1-neutralising antibody Ab7326 or IgG control Ab101.4 (UCB-Pharma, UK) by subcutaneous (s.c.) injection three days and one day prior to tumour inoculation. At Day 0, mice were inoculated with 5×10^5 5TGM1.Bmx1 cells via tail vein injection. Mice continued to receive either 30 mg/kg Grem1-neutralising antibody Ab7326 or IgG control Ab101.4 (UCB-Pharma, UK) by s.c. injection every 3 days for the duration of the 4-week model. Tumour burden was monitored weekly by BLI as previously described. At the end of the experiment, blood was collected by tail bleed, centrifuged at 2100 g for 10 min and serum collected. Serum paraprotein levels were analysed using the Hydragel 30 β1β2 kit (Sebia Electrophoresis, Georgia, USA) according to the manufacturer's instructions. The band corresponding to paraprotein was quantitated relative to serum albumin levels. (SAHMRI Animal Ethics SAM165)

[5] = molecular target: T4, rhGrem1 (Homo sapiens, UniProt O60565); assay: Western blot of Smad1/5/9 phosphorylation in murine 4T1 breast cancer cells; format: cell-based, mouse; details: 10 ng/ml BMP2, 100 ng/ml rhGrem1 pre-incubated with antibody; vs isotype control
T4 sequence (O60565 25-184): T1 sequence (O60565 25-184)
Experimental: Murine 4T1 BrCa cells were seeded into 6-well plates and cultured until 80% confluent. Cells were starved in serum-free medium overnight, and then stimulated with indicated treatments for 2 hrs. Cell lysates were prepared and equivalent amounts of protein (50 μg) were separated on 10% sodium dodecyl sulphate-polyacrylamide gel electrophoresis (SDS-PAGE) gels and transferred to nitrocellulose membranes. Immunoblotting was performed with phospho-Smad1/5/9 antibodies (cell signalling technologies, 1:1000 dilution). Equal loading of protein samples was confirmed by blotting membranes with antibodies against β-actin (Sigma Aldrich, 1:2500 dilution). Proteins were visualised using the Odyssey Infrared Imaging System (LI-COR Bioscience, Lincoln, NE, USA).
As Grem1 is a known BMP-2/4/7 antagonist, we assessed the ability of UCB antibody Ab7326 to inhibit Grem1-induced inhibition of Smad1/5/9 phosphorylation via western blot analysis. Murine 4T1 breast cancer cells exposed to 10 ng/ml BMP2 which led to Smad1/5/9 phosphorylation. Co-incubation with 100 ng/ml rhGrem1 inhibited this BMP2-mediated Smad1/5/9 phosphorylation.

[6] = test system: PyMT-B01 mouse breast cancer cells; assay: PyMT-B01 breast cancer model in C57BL6 mice (BLI); format: in vivo
Experimental: PyMT-B01: 5-week old C57BL6 immunocompetent mice were subcutaneously (s.c) administered two 30 mg/kg doses of anti-Grem1 antibody Ab7326 or IgG control, Ab101.4, the week prior to tumour cell inoculation. 1×10^5 luciferase expressing PyMT-B01 mouse breast cancer cells were injected systemically via the caudal artery (CA).
Treatment continued twice weekly for the duration of the study. At weekly intervals, mice were administered 150 mg/kg luciferin intraperitoneally (i.p) and imaged using the Xenogen IVIS Bioluminescence Imaging System, and tumour burden was quantitated using Living Image software. The study ended on day 13 and day 22 post-tumour cell injection for the PyMT-B01 and MDA-MB-231 models respectively, according to animal ethics requirements. Organs were dissected upon culling animals and BLI imaged ex vivo for analysis of tumour metastasis.

[7] = test system: Vil1-Grem1 mice; assay: Vil1-Grem1 mouse polyposis model (phenotype, survival); details: for median survival: vehicle 242 days

Ab7326: allosteric inhibitory anti-Gremlin-1 antibody from a naïve human library; CDRs SEQ ID NOS 4 to 9; mouse IgG1 in mouse experiments
Restoration of p-SMAD signalling, percentage of SMAD phosphorylation by BMP alone ([1]; BMP 2 50 ng/ml): 107.2%
Restoration of p-SMAD signalling, percentage of SMAD phosphorylation by BMP alone ([1]; BMP 4 25 ng/ml): 110.0%
Restoration of p-SMAD signalling, percentage of SMAD phosphorylation by BMP alone ([1]; BMP4/7 50 ng/ml): 127.0%
Restoration of p-SMAD signalling, percentage of SMAD phosphorylation by BMP alone ([1]; BMP 7 200 ng/ml): 108.0%
Restoration of p-SMAD signalling, percentage of SMAD phosphorylation by BMP alone ([1]; BMP-2/7 50 ng/ml): 128.5%
Displacement of BMP-2 from Gremlin 1-BMP complexes (SMAD phosphorylation) ([2]; antibody 0.63 μg/ml): 97.0%
Displacement of BMP-2 from Gremlin 1-BMP complexes (SMAD phosphorylation) ([2]; antibody 1.27 μg/ml): 102.8%
Displacement of BMP-2 from Gremlin 1-BMP complexes (SMAD phosphorylation) ([2]; antibody 2.55 μg/ml): 103.2%
Displacement of BMP-2 from Gremlin 1-BMP complexes (SMAD phosphorylation) ([2]; antibody 5.1 μg/ml): 100.3%
Displacement of BMP-2 from Gremlin 1-BMP complexes (SMAD phosphorylation) ([2]; antibody 10.2 μg/ml): 103.8%
Displacement of BMP-2 from Gremlin 1-BMP complexes (SMAD phosphorylation) ([2]; antibody 20.3 μg/ml): 99.4%
Displacement of BMP-2 from Gremlin 1-BMP complexes (SMAD phosphorylation) ([2]; antibody 40.6 μg/ml): 101.5%
Displacement of BMP-2 from Gremlin 1-BMP complexes (SMAD phosphorylation) ([2]; antibody 81.3 μg/ml): 103.7%
Displacement of already complexed BMP from Gremlin 1-BMP complexes ([2]; BMP-2 or BMP4/7, at much lower concentrations than comparison antibody 2484): can displace already complexed BMP-2 or BMP4/7
Displacement of BMP4/7 from Gremlin 1-BMP complexes (SMAD phosphorylation) ([3]; antibody 0.63 μg/ml): 102.0%
Displacement of BMP4/7 from Gremlin 1-BMP complexes (SMAD phosphorylation) ([3]; antibody 1.27 μg/ml): 111.1%
Displacement of BMP4/7 from Gremlin 1-BMP complexes (SMAD phosphorylation) ([3]; antibody 2.55 μg/ml): 120.9%
Displacement of BMP4/7 from Gremlin 1-BMP complexes (SMAD phosphorylation) ([3]; antibody 5.1 μg/ml): 121.4%
Displacement of BMP4/7 from Gremlin 1-BMP complexes (SMAD phosphorylation) ([3]; antibody 10.2 μg/ml): 125.6%
Displacement of BMP4/7 from Gremlin 1-BMP complexes (SMAD phosphorylation) ([3]; antibody 20.3 μg/ml): 130.3%
Displacement of BMP4/7 from Gremlin 1-BMP complexes (SMAD phosphorylation) ([3]; antibody 40.6 μg/ml): 132.3%
Displacement of BMP4/7 from Gremlin 1-BMP complexes (SMAD phosphorylation) ([3]; antibody 81.3 μg/ml): 133.7%
Reduction in tumour burden (BLI) ([4]; 30 mg/kg s.c. from three days prior to inoculation, 4-weeks post-tumour cell inoculation, vs IgG control): approximately 75%
Tumour burden in the hindlimb bones (BLI) ([4]; antibody prior to tumour cell inoculation, vs IgG control): significant reduction
Additional reduction in overall tumour burden compared with treatment following tumour cell inoculation ([4]; end of the study): 25%
Splenic tumour burden ([4]; pre-tumour cell inoculation group): downwards trend
M-spike intensity relative to serum albumin (SPEP) ([4]; week 4, vs IgG control): significantly lower
Smad1/5/9 phosphorylation in 4T1 cells [5]: partially restored
Reduction in overall tumour burden (BLI) ([6]; day 13, 30 mg/kg s.c. twice weekly, vs isotype control Ab101.4): 35%
Liver metastatic tumour burden (BLI) ([6]; vs isotype control): downward trend
Lung metastatic tumour burden (ex vivo BLI) ([6]; vs isotype control): statistically significant reduction
Villus ectopic crypt formation and cell fate determination (immunohistochemical staining) ([7]; 30 mg/kg twice weekly for 6 weeks): reversal of villus ectopic crypt formation and deranged cell fate determination
Pan-intestinal polyposis phenotype ([7]; 30 mg/kg twice weekly subcutaneous for 6 weeks): highly significant abrogation
Animal lifespan ([7]; 30 mg/kg weekly subcutaneous from 6 weeks of age, prolonged dosing): significantly prolongs animal lifespan
Adverse events ([7]; Grem1 initiated polyposis models, animals treated for more than 400 days): No consistent adverse events have been observed
median survival ([7]; early stage treatment (42 days), 30 mg/kg weekly): 540 days
median survival ([7]; established polyposis, 30 mg/kg weekly from 5 months): 477 days
Vil1-Grem1 intestinal phenotype at timed sacrifice ([7]; established polyposis, over 4 weeks of treatment): reversion of the Vil1-Grem1 intestinal phenotype
median survival ([7]; late-stage treatment (120 days), 30 mg/kg weekly): 519 days
